Here are results for one substance from PMC8920257.

Common to all, as to assay: SPR
The target in assay [1] is ACE2 p.Lys26Arg (human) (UniProt Q9BYF1).
Assay [2] concerns the target ACE2 p.Gly326Glu (human) (UniProt Q9BYF1).
Assay [3] addresses ACE2 p.Glu329Gly (human) (UniProt Q9BYF1).
Assay [4] concerns the target ACE2 p.Glu37Lys (human) (UniProt Q9BYF1).
Assay [5] concerns the target ACE2 p.Glu35Lys (human) (UniProt Q9BYF1).
In assay [6] the target is ACE2 p.Ser19Pro (human) (UniProt Q9BYF1).
Assay [7] has as its target ACE2 p.Phe40Leu (human) (UniProt Q9BYF1).
Assay [8] addresses ACE2 p.Asp355Asn (human) (UniProt Q9BYF1).
Assay [9] concerns the target ACE2 p.Thr27Arg (human) (UniProt Q9BYF1).
Assay [10] has as its target ACE2 p.Pro389His (human) (UniProt Q9BYF1).

With “SARS-CoV-2 Spike receptor binding domain (from UniProt P0DTC2) (domain or fragment)”, the SPR ΔΔG against ACE2 WT in assay [1] is 0.26 kcal/mol; in assay [2], -0.65 kcal/mol; in assay [3] it was -0.09 kcal/mol; in assay [4], -1.33 kcal/mol; in assay [5] it was -0.36 kcal/mol; in assay [6], 0.59 kcal/mol. Also, the SPR ΔΔG against ACE2 WT is 0.11 kcal/mol in [7], below -3.16 kcal/mol in assay [8], -0.11 kcal/mol in assay [9] and 0.27 kcal/mol in assay [10]. For the same substance, the ΔΔG against ACE2 WT in assay [1] was 0.31 kcal/mol; in assay [2], -0.67 kcal/mol; in [3], -0.06 kcal/mol; in assay [4], -1.25 kcal/mol; in assay [5], -0.29 kcal/mol; in [7], 0.14 kcal/mol. Further, the ΔΔG against ACE2 WT in assay [10] turned out to be 0.12 kcal/mol.
